Laboratory results taken from article PMC4743925, “Targeting an Essential GTPase Obg for the Development of Broad-Spectrum Antibiotics” (PLoS ONE, 2016).

Substrate: Nc1nc2c(ncn2[C@@H]2O[C@H](COP(=O)(O)OP(=O)(O)OP(=O)(O)O)[C@@H](O)[C@H]2O)c(=O)[nH]1
Assay: BIOMOL Green (malachite green) phosphate release
Assay type: biochemical, Neisseria gonorrhoeae
Conditions: 5 μM protein, 10-1000 μM GTP, 6 h, 37 °C, pH 8.0, 10 mM MgCl2, 50 mM KCl

B1: ObgGC (Neisseria gonorrhoeae FA 1090) (protein)
chain: MKFIDEAKIEVAAGKGGNGATSFRREKFVPRGGPDGGDGGKGGSVWAEADENTNTLVEYRFVKRYQAKNGEKGHGSDRYGAGADDIVLKMPVGTLIRDLDTDEIVADLTYHGQRVCLAKGGKGGLGNIHFKSSVNRAPKQSTPGEEGETRSLQLELKVLADVGLLGMPNAGKSTLITAVSAARPKIANYPFTTLHPNLGVVRIDENHSFVMADIPGLIEGAAEGAGLGHRFLKHLSRTGLLLHVVDLAPFDETVNPAEEALAIINELRKYDEELYGKPRWLVLNKLDMLDEEEARARTAAFLEAVGWDYPEPDDRFQFDMETPRLFQISALTHQGTQELVHQINQYLAEKKRIEAEKAEAEKAAANVEIIEQQPKTDTGVFKPE
notes: full-length with C-terminal 6xHis tag, expressed in E. coli BL21(DE3), IMAC and size exclusion; tag not reported cut
  Km: 78.76 µM
